{"source": "paper PMC3592467", "about": "(Nucleic Acids Research, 2012)", "biological_target": "T1, MBD3-GFP (UniProt O95983 1-291)", "T1 sequence": "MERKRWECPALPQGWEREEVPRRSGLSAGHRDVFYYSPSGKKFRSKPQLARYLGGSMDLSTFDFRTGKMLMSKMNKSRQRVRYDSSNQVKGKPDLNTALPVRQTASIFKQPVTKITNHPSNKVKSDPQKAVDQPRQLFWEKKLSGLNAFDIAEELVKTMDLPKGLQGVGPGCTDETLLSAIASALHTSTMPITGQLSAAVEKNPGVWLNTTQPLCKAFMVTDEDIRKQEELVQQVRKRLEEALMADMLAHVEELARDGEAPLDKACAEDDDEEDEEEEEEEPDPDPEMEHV", "test": "affinity purification with mass spectrometry"}
{"binder": "ZNF592 (natural protein) MGDMKTPDFDDLLAAFDIPDPTSLDAKEAIQTPSEENESPLKPPGICMDESVSLSHSGSAPDVPAVSVIVKNTSRQESFEAEKDHITPSLLHNGFRGSDLPPDPHNCGKFDSTFMNGDSARSFPGKLEPPKSEPLPTFNQFSPISSPEPEDPIKDNGFGIKPKHSDSYFPPPLGCGAVGGPVLEALAKFPVPELHMFDHFCKKEPKPEPLPLGSQQEHEQSGQNTVEPHKDPDATRFFGEALEFNSHPSNSIGESKGLARELGTCSSVPPRQRLKPAHSKLSSCVAALVALQAKRVASVTKEDQPGHTKDLSGPTKESSKGSPKMPKSPKSPRSPLEATRKSIKPSDSPRSICSDSSSKGSPSVAASSPPAIPKVRIKTIKTSSGEIKRTVTRILPDPDDPSKSPVGSPLGSAIAEAPSEMPGDEVPVEEHFPEAGTNSGSPQGARKGDESMTKASDSSSPSCSSGPRVPKGAAPGSQTGKKQQSTALQASTLAPANLLPKAVHLANLNLVPHSVAASVTAKSSVQRRSQPQLTQMSVPLVHQVKKAAPLIVEVFNKVLHSSNPVPLYAPNLSPPADSRIHVPASGYCCLECGDAFALEKSLSQHYGRRSVHIEVLCTLCSKTLLFFNKCSLLRHARDHKSKGLVMQCSQLLVKPISADQMFVSAPVNSTAPAAPAPSSSPKHGLTSGSASPPPPALPLYPDPVRLIRYSIKCLECHKQMRDYMVLAAHFQRTTEETEGLTCQVCQMLLPNQCSFCAHQRIHAHKSPYCCPECGVLCRSAYFQTHVKENCLHYARKVGYRCIHCGVVHLTLALLKSHIQERHCQVFHKCAFCPMAFKTASSTADHSATQHPTQPHRPSQLIYKCSCEMVFNKKRHIQQHFYQNVSKTQVGVFKCPECPLLFVQKPELMQHVKSTHGVPRNVDELSSLQSSADTSSSRPGSRVPTEPPATSVAARSSSLPSGRWGRPEAHRRVEARPRLRNTGWTCQECQEWVPDRESYVSHMKKSHGRTLKRYPCRQCEQSFHTPNSLRKHIRNNHDTVKKFYTCGYCTEDSPSFPRPSLLESHISLMHGIRNPDLSQTSKVKPPGGHSPQVNHLKRPVSGVGDAPGTSNGATVSSTKRHKSLFQCAKCSFATDSGLEFQSHIPQHQVDSSTAQCLLCGLCYTSASSLSRHLFIVHKVRDQEEEEEEEAAAAEMAVEVAEPEEGSGEEVPMETRENGLEECAGEPLSADPEARRLLGPAPEDDGGHNDHSQPQASQDQDSHTLSPQV", "values": [{"measurement": "stoichiometry N", "value": "~0.01 relative to MBD3"}]}
